Laboratory results from the supplement of paper PMC9732359.
± gives the uncertainty stated by the source.

Assay: protein stability index of a GFP-peptide fusion (yeast GPS) (PSI 1-4); higher = more stable; sorted into four equal gates, so the index is relative within each strain
Summary of the method: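 Plasmids in a pooled yeast library fused tiled 17-residue yeast protein peptides downstream of GFP and also expressed Cherry. Mid-log cultures grown without leucine were sorted into four equal gates by GFP/Cherry fluorescence ratio. Each gate's plasmids were PCR-amplified and Illumina-sequenced, and reads were matched to strains by barcodes. The protein stability index is derived by multiplying each gate's read frequency by its gate number and summing the results.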

Sequence	protein stability index (doa10∆)	protein stability index (pdr5∆)	protein stability index (san1∆)	protein stability index (ubr1∆)
MRAKWRKKRTRRLKRKR [RPL41A]	3.47 ± 0.16	3.06 ± 0.13	3.34 ± 0.16	3.44 ± 0.15
ISLEALNFYITNVPKAK [SIR3]	2.67 ± 0.065	2.82 ± 0.063	2.62 ± 0.053	2.87 ± 0.035
MEADPSLHPLFEQFEKF [RPN9]	2.82 ± 0.073	2.84 ± 0.061	2.39 ± 0.1	2.55 ± 0.05
LEKVVPLINVVVDILSA [BRR2]				1.26 ± 0.19
HTTQIVNLEDNTQDLLL [YML103C/NUP188]	3.21 ± 0.11	3.35 ± 0.12	3.27 ± 0.069	3.07 ± 0.086
FDVVLTTFEYIIKERAL [SNF2]	2.12 ± 0.067	2.36 ± 0.071	2.05 ± 0.088	2.14 ± 0.071
QQQQTSPPPQTHQSPPP [SNF5]	2.883 ± 0.018	2.878 ± 0.016	2.88 ± 0.016	2.901 ± 0.014
LSMRFQRETSGMIVISM [SRB8]	2.13 ± 0.081	2.05 ± 0.062	1.54 ± 0.067	1.97 ± 0.058
GWWGHMGGPKQKGITSY [QCR8]	3.16 ± 0.072	2.13 ± 0.08	1.41 ± 0.14	1.67 ± 0.075
LPNIYPSTRCKLKLLRM [RPT2]	1.33 ± 0.037	1.43 ± 0.049	1.37 ± 0.076	1.59 ± 0.048
VVARRSNSANVSSPESE [ITC1]	3.19 ± 0.05	3.35 ± 0.053	3.25 ± 0.036	3.18 ± 0.035
DSKKIKVDSPDDPFMTK [GAL11]	2.55 ± 0.075	2.57 ± 0.074	2.5 ± 0.057	2.82 ± 0.04
TASVEKAEFSKEMTLQK [YIL149C/MLP2]	3.25 ± 0.15	3.44 ± 0.14	3.3 ± 0.14	3.22 ± 0.13
VKLPRAFIDERASDLRM [RRP43]		1.68 ± 0.26		1.69 ± 0.16
QEQLKNVKNDVSFNDSQ [YIL149C/MLP2]	3.27 ± 0.061	3.5 ± 0.066	3.08 ± 0.083	3.31 ± 0.053
KKVGITGKYGVRYGSSL [RPL43A]	3.16 ± 0.065	3.28 ± 0.051	3.3 ± 0.045	3.15 ± 0.033
ELMDRTGLKLYSRITLI [RPP1]	1.57 ± 0.11	2.66 ± 0.1	1.69 ± 0.1	2.43 ± 0.12
IKGQCLATLLGHNDWVS [ASC1]	1.37 ± 0.083	1.69 ± 0.083	1.72 ± 0.11	1.65 ± 0.066
SNEEKEKIKMKLKQGQK [GAL11]	2.96 ± 0.25	3.37 ± 0.12	3.04 ± 0.07	
DTVSWFKQKYDADVLDK [RPL11A]	2.06 ± 0.044	1.74 ± 0.044	1.64 ± 0.077	1.97 ± 0.039
IKELLNITKNLKTFNGS [POP4]	1.99 ± 0.13	2 ± 0.064	2.46 ± 0.056	2.21 ± 0.047
IIDEIITQMRVNDEEEH [RPC82]	3 ± 0.084	2.54 ± 0.071	3.54 ± 0.12	2.19 ± 0.079
ADVLSILAMTYSENGKH [RPN1]	1.64 ± 0.066	1.9 ± 0.1	1.45 ± 0.11	1.36 ± 0.052
LLENSVDKNFDKLELYV [MTW1]	3.03 ± 0.052	2.64 ± 0.065	3.15 ± 0.065	2.97 ± 0.048
TASKIIVIDVDYNKKQD [MED1]	2.21 ± 0.083	2.58 ± 0.081	2.17 ± 0.055	2.65 ± 0.065
LYRSIESGEFDFDLFKE [YJL039C/NUP192]	3.1 ± 0.12	2.93 ± 0.1	3.01 ± 0.069	2.91 ± 0.11
TAIGIATKEGVVLGVEK [PUP2]	3.15 ± 0.14	3.31 ± 0.11	2.79 ± 0.16	3.11 ± 0.058
